{
  "source": "patent US20260055186A1",
  "about": "(REPERTOIRE IMMUNE MEDICINES, published 2026)",
  "key": {"[1]": {"target": "T1, human CD8 on human T cells (human, UniProt P01732 22-235)", "T1 construct": "whole, on cells; the antibodies were raised against human CD8 alpha; also called CD8 on human CD8+ T cells; hCD8", "T1 sequence (P01732 22-235)": "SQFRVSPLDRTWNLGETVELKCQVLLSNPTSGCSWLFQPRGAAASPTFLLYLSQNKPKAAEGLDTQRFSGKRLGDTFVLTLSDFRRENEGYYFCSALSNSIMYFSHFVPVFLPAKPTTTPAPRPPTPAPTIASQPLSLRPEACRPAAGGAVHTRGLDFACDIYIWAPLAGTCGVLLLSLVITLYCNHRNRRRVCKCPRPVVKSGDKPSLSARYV", "assay": "flow cytometry, CD8+ T cells in human PBMCs, 30 min 37 °C, anti-IL-12p40", "protocol": "(§1) Fusion proteins H6K3-IgG-IL12 (LC) and H6K3-IgG-IL12 (1×HC) were also evaluated for their ability to bind CD8-expressing cells in human and cynomolgus monkey PBMCs. Briefly, 5×10⁴ human PBMCs (StemCell Technologies) or cynomolgus monkey PBMCs (iQ Biosciences) were incubated with 7 serial 5-fold dilutions of one of the two aforementioned H6K3-IgG-IL12 constructs for 30 minutes at 37° C. Cells were washed twice with MACS buffer and stained with viability dye and fluorophore-conjugated antibodies against IL-12 and cell-surface markers for 20 minutes at 4° C. Cells were analyzed on a FACSCelesta using Diva software (BD Biosciences). Binding activity for all treatments was quantified and represented as the mean fluorescence intensity values of IL-12 on human CD8+ T cells and NK cells (FIGS. 17A-17B) and on cynomolgus monkey CD8+ T cells and NK cells (FIGS. 17C-17D). For the H6K3-IgG-IL12 (LC) treatments, results are also reported as the frequency of IL-12+CD8+ T cells and NK cells (FIG. 17E). As shown in FIGS. 17A-17D, both H6K3-IgG-IL12 (LC) and H6K3-IgG-IL12 (1×HC) were able to selectively bind human CD8+ T cells over NK cells at a range of concentrations. […] Where the cells were incubated with 0.128 nM of the IL-12 fusion constructs, the number of live CD45+ cells staining as CD8+ and IL-12 were assessed by flow cytometry. […]"}, "[2]": {"target": "T2, cynomolgus monkey CD8 on cynomolgus cells (cynomolgus monkey)", "assay": "cell-based or functional assay"}, "[3]": {"target": "T2, cynomolgus monkey CD8 on cynomolgus …", "assay": "flow cytometry, CD8+ T cells in cynomolgus PBMCs, 30 min 37 °C, anti-IL-12p40", "protocol": "as §1"}, "[4]": {"target": "T2, cynomolgus monkey CD8 on cynomolgus …", "assay": "flow cytometry, NK cells in cynomolgus PBMCs (CD8-expressing by paragraph 442), 30 min 37 °C, anti-IL-12p40", "protocol": "as §1"}, "[5]": {"target": "T1, human CD8 on human T cells", "assay": "flow cytometry, CD8+ T cells in human PBMCs, 30 min 37 °C, anti-human IL-12 AF647", "protocol": "Fusion proteins H6K3-IgG-IL12 (LC) and H6K3-IgG-IL12 (1×HC) were evaluated for their ability to selectively bind human CD8+ T cells in PBMCs. Briefly, 5×10⁴ human PBMCs (StemCell Technologies) were incubated with 7 serial 5-fold dilutions of one of the two aforementioned H6K3-IgG-IL12 constructs for 30 minutes at 37° C. Cells were washed twice with MACS buffer and stained for 20 minutes at 4° C. with fluorophore-conjugated anti-CD3, anti-CD4, anti-CD8, anti-CD56, and anti-IL12 antibodies, and viability dye. Cells were analyzed on a FACSCelesta using Diva software (BD Biosciences). Binding activity was quantified and represented as the mean fluorescent intensity values of IL-12 on either CD8+ T cells or NK Cells. As shown in FIGS. 16A-16B, both H6K3-IgG-IL12 (LC) and H6K3-IgG-IL12 (1×HC) were able to selectively bind human CD8+ T cells over NK cells at a range of concentrations."}, "[6]": {"target": "T1, human CD8 on human T cells", "assay": "cell-based or functional assay"}, "mouse CD8 on mouse cells": {"target": "T3, mouse CD8 on mouse cells (mouse, UniProt P01731 28-247)", "T3 construct": "whole, on cells; also called mCD8", "T3 sequence (P01731 28-247)": "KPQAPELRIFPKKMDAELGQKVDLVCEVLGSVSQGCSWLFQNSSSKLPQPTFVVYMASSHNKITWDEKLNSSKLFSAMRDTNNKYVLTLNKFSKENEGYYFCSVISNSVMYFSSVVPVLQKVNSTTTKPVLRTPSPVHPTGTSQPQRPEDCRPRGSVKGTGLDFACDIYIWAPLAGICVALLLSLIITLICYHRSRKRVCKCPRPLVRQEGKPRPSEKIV", "assay": "flow cytometry of peripheral blood, B16-F10-bearing mice, 4 days after the first dose (in vivo)", "protocol": "Mice were injected weekly for a total of 4 doses, at a dose equivalent to 10 μg of recombinant IL12. Tumor volume was measured twice per week, and mice were euthanized if tumor volume exceeded 2000 mm³. […] Specifically, in the MC38 model, treatment with the CD8IgG-IL12 (LC) Clone 2 construct controlled tumor growth up to day 21 and yielded 3/8 complete responders, whereas treatment with the CD8IgG-IL12 (1× HC) construct controlled tumor growth for the entire duration of the study and yielded 7/8 complete responders (FIGS. 6A-6C). In the B16-F10 model, which is typically less responsive to immunotherapy, both constructs limited tumor growth for up to 14 days after the initial dose (FIGS. 7A-7C).\nIn the same study, the two anti-CD8:IL-12 fusion constructs were also evaluated for their ability to be retained in tissues. Peripheral blood cells were collected from MC38 and B16-F10 tumor-bearing mice 4 days after administration of the first dose of the IL-12 construct. Samples were analyzed by flow cytometry. In the case of the MC38 tumor-bearing mice, IL-12 was detected on the surface of CD8+ T cells 4 days post-treatment with either of the two anti-CD8:IL-12 fusion protein constructs, but not on the surface of CD4+ T cells or NK cells (FIG. 8A). […]"}},
  "data": [
    {"binder": "H6K3-IgG-IL12 (1×HC) (other, Humanized 02A01 VH6/VK3 IgG1 with one human IL-12p70 on the C-terminus of the knob heavy chain; Fc with L234A, L235A, P329G, N297A and T366W / T366S, L368A, Y407V; not tied to this name; also called hCD8IgG-1×IL12 (HC); hCD8IgG-IL12 (1 × HC)) VH: EVQLVQSGAEVKKPGATVKISCKASGYTFTDFTMHWVQQAPGKGLEWIGLVNPNNGGNIYAEKFQGRVTLTVDTSTSTAYMELSSLRSEDTAVYYCGRVPLYTSHGMDYWGQGTLVTVSS VL: EIVLTQSPATLSLSPGERATISCRASESVDSYDINSMHWYQQKPGQAPRLLIYRASHLQSGIPARFSGSGSRTDFTLTISSLEPEDFATYYCQQSNEDPLTFGQGTKLEIK", "values": [
      {"measurement": "EC50 (read off the curve)", "setting": "[1]", "result": "~50", "unit": "pM"},
      {"measurement": "EC50 of pSTAT4 signaling in cynomolgus CD8+ T cells", "setting": "[2]", "result": 2.3, "unit": "pM"},
      {"measurement": "EC50 of pSTAT4 signaling in cynomolgus NK cells", "setting": "[2]", "result": 2, "unit": "pM"},
      {"measurement": "EC50 (read off the curve)", "setting": "[3]", "result": "~50", "unit": "pM"},
      {"measurement": "EC50 (read off the curve)", "setting": "[4]", "result": "~100", "unit": "pM"},
      {"measurement": "EC50 (read off the curve)", "setting": "[5]", "result": "~60", "unit": "pM"},
      {"measurement": "EC50 of pSTAT4 signaling in human CD8+ T cells", "setting": "[6]", "result": 2.3, "unit": "pM"}
    ]},
    {"binder": "H6K3-IgG-IL12 (LC) (other, Humanized 02A01 VH6/VK3 IgG1 with human IL-12p70 on each light chain C-terminus; Fc with L234A, L235A, P329G, N297A; not tied to this name; also called hCD8IgG-IL12 (LC)) VH: EVQLVQSGAEVKKPGATVKISCKASGYTFTDFTMHWVQQAPGKGLEWIGLVNPNNGGNIYAEKFQGRVTLTVDTSTSTAYMELSSLRSEDTAVYYCGRVPLYTSHGMDYWGQGTLVTVSS VL: EIVLTQSPATLSLSPGERATISCRASESVDSYDINSMHWYQQKPGQAPRLLIYRASHLQSGIPARFSGSGSRTDFTLTISSLEPEDFATYYCQQSNEDPLTFGQGTKLEIK", "values": [
      {"measurement": "EC50 (read off the curve)", "setting": "[1]", "result": "~30", "unit": "pM"},
      {"measurement": "EC50 of pSTAT4 signaling in cynomolgus CD8+ T cells", "setting": "[2]", "result": 1.8, "unit": "pM"},
      {"measurement": "EC50 of pSTAT4 signaling in cynomolgus NK cells", "setting": "[2]", "result": 2.4, "unit": "pM"},
      {"measurement": "EC50 (read off the curve)", "setting": "[3]", "result": "~50", "unit": "pM"},
      {"measurement": "EC50 (read off the curve)", "setting": "[5]", "result": "~40", "unit": "pM"},
      {"measurement": "EC50 of pSTAT4 signaling in human CD8+ T cells", "setting": "[6]", "result": 3.3, "unit": "pM"}
    ]},
    {"binder": "rIL-12 (ligand, untargeted control; also called rmIL-12; non-targeted recombinant mouse IL-12; copies: 1 + 1) alpha: RVIPVSGPARCLSQSRNLLKTTDDMVKTAREKLKHYSCTAEDIDHEDITRDQTSTLKTCLPLELHKNESCLATRETSSTTRGSCLPPQKTSLMMTLCLGSIYEDLKMYQTEFQAINAALQNHNHQQIILDKGMLVAIDELMQSLNHNGETLRQKPPVGEADPYRVKMKLCILLHAFSTRVVTINRVMGYLSSA beta: MWELEKDVYVVEVDWTPDAPGETVNLTCDTPEEDDITWTSDQRHGVIGSGKTLTITVKEFLDAGQYTCHKGGETLSHSHLLLHKKENGIWSTEILKNFKNKTFLKCEAPNYSGRFTCSWLVQRNMDLKFNIKSSSSSPDSRAVTCGMASLSAEKVTLDQRDYEKYSVSCQEDVTCPTAEETLPIELALEARQQNKYENYSTSFFIRDIIKPDPPKNLQMKPLKNSQVEVSWEYPDSWSTPHSYFSLKFFVRIQRKKEKMKETEEGCNQKGAFLVEKTSTEVQCKGGNVCVQAQDRYYNSSCSKWACVPCRVRS", "values": [
      {"measurement": "binding result", "setting": "mouse CD8 on mouse cells", "result": "no binding (tested: dose equivalent to 10 µg IL-12, i.v.)"}
    ]}
  ]
}
